Assay results published in patent publication US20230312744A1, “Modulatory Substance of Tumor Immune Microenvironment, and Preventive, Diagnostic and/or Therapeutic Utilization of the Same” (The University Of Tokyo, priority 2020, published 2023).

Molecular target: T1, mouse TCTP (Mus musculus, UniProt P63028)
T1 construct: preparing the whole cell lysate of TCTP WT SL4 cells (WT) or TCTP KO SL4 cells (KO), followed by immunoblotting; endogenous in cells; host or cells: SL4 mouse colon carcinoma cells (TCTP WT; TCTP KO as negative control)
T1 sequence (P63028 1-172): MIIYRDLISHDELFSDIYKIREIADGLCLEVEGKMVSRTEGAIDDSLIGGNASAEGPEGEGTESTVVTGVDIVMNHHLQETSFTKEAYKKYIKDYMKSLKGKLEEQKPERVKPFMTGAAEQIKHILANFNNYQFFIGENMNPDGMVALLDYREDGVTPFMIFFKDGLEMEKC
Assay: Immunoblotting of whole cell lysate of TCTP WT / TCTP KO SL4 cells using the 55F3 monoclonal antibody
Format: binding
Settings: lysate of TCTP WT vs TCTP KO SL4 cells, FIG. 12(a)
Description: In FIG. 12(b), PECs (2×10^5 cells) were stimulated with a supernatant of dead SL4 cells comprising the 55F3 antibody or control IgG. After the stimulation for 2 hours, the expressed Cxcl1 mRNA was quantified by RT-qPCR. n=3, and Sup: culture supernatant. In FIG. 12(c), TCTP WT SL4 cells or TCTP KO SL4 cells ([…]) were subcutaneously transplanted into C57BL/6 mice. After the transplantation, DHA (50 mg/kg) or DMSO was intraperitoneally administered to the mice every day (n=6). In FIG. 12(d), (left view) the expression level of TCTP in the interstitial area of normal large intestinal tissues was compared with the expression level of TCTP in the interstitial area of colorectal cancer tissues. In FIG. 12(d), (right view) a normal colon crypt was compared with a neoplastic lesion. […] Spearman r: spearman correlation coefficients. *P<0.05, **P<0.01. Regarding FIG. 12(b), repeated measures one-way ANOVA with Dunnett's multiple comparisons test. Regarding FIG. 12(c), repeated measures one-way ANOVA with Tukey's multiple comparisons test. […]
Immunoblot analysis was performed according to the previous report (Inoue et al., Nature 434, 243-249, doi: 10.1038/nature03308 (2005)). β-Actin (cat# A5441) was purchased from Sigma-Aldrich. […] Immunoblotting signals were detected by FUSION Solo S (Vilber-Lourmat), and were then analyzed by FUSION Capt Advanced software (Vilber-Lourmat). […]

B1: 55F3: Mouse monoclonal antibody against human TCTP peptide SEQ ID NO: 25; CDRs SEQ ID NO: 1-6, VH SEQ ID NO: 19, VL SEQ ID NO: 22 (antibody, listed as Mus musculus)
VH: MRVLILLWLFTAFPGILSDVQLQESGPGLVKPSQSLSLTCTATGYSIASDYAWNWIRQFPGNKLEWMGYINYSGSTGYNPSLKSRISITRDTSKNQFFLQLNSVTTEDTATYYCARFEAGYWGQGTTLTVSSAKTTPPSVYPLAPGSAAQTNSMVTLGCLVKGYFPEPVT
VL: MDMRTPAQFLGILLLWFPGIKCDIKMTQSPSSMSASLGERVTITCKASQDINRYLSWFQQKPGKSPKTLIYRANRLVDGVPSRFSGSGSGQDYSLTISSLEYGDMGIYYCLQYNEFPLTFGAGTKLELKRADAAPTVSIFPPSSEQLTSGGASVVCFLN
- species crossing property to mouse TCTP: has species crossing property to mouse TCTP
